The target of the experiment is BG505.SOSIP.664 Env trimer (heterologous clade A native-like trimer containing the N332 glycan) (HIV-1 clade A, isolate BG505 …, stabilised). Kind of experiment: cell-based or functional assay.

B1: QA013.2 CDRH3 point mutant antibody D106V (mature VH D106V paired with the mature light chain) (antibody, V domains shown)
VH: DIRIAESGGGLVQPGESLRLACEIIELGFRRAWTTWVRQAPGKGLEWVADINEDGSEKKYGPSVTGRFTISRDNGKNLVFLQMNSLRVEDTATYYCAREAYHLVYVDRIPRGNWFDPWGPGTLVTVSS
VL: QSVLTQPPSVSGAPGQRVVISCTGSRSNIGAGYDVHWYQQSPGKVPRIIIYGSNSRSSGVPARFSGSKSGTSASLAITGLQAEDEADYYCQSYDTTLTASVFGGGTKVTVL
Regarding B1, the “average fold increase in neutralisation IC50 across all tested pseudoviruses relative to the mature bnAb (TZM-bl assay)” value turned out to be 40 fold.

These data come from doi:10.1101/2021.03.15.435484, “Functional development of a V3-specific broadly neutralizing antibody isolated from a case of HIV superinfection” (bioRxiv, 2021).
